Legend:
Ryk-Fc fusion protein [1] = target: T1, Ryk-Fc fusion protein (human); test: SPR, BIACORE 2000, 25 C; scFv 1B4 amine coupled to CM5 chip, Ryk-Fc 30 to 242 nM injected; KD = koff/kon
T1 chain: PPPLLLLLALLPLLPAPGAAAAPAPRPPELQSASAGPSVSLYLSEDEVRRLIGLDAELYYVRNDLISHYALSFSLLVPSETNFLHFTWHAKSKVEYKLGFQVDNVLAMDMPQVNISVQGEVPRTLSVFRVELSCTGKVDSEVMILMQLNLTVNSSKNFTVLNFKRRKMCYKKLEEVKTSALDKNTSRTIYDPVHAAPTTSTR

Ryk-Fc fusion protein [2] = target: T1, Ryk-Fc fusion protein; test: SPR, BIACORE 2000, 25 C; scFv 1B4 amine coupled to CM5 chip, Ryk-Fc 30 to 242 nM injected; global fit A + B = AB

B1: anti-Ryk scFv 1B4 antibody (scFv, V domains shown)
VH: EVQLVQSGAEVKKPGSSVKVSCKASGGTFSSYAISWVRQAPGQGLEWMGGIIPIFGTANYAQKFQGRVTITADESTSTAYMELSSLRSEDTAVYYCARSYYDWFDYWGQGTLVTVSS
VL: IVLTQPPSVSGAPGQRVTISCSGSSSNIGSNYVSWYQQLPGTAPKLLIYDNNQRPSGVPDRFSGSKSGTSASLAITGLQSEDEADYYCQSWDSIAQIVFGGGTKLTVL
Ryk-Fc fusion protein [1]
  Kd: 13.3 nM
Ryk-Fc fusion protein [2]
  koff: 0.00067 s⁻¹
  kon: 50000 M⁻¹ s⁻¹

— patent publication WO2001085789A2 (dated 2001)
